Measured values published in paper doi:10.1101/2024.09.24.614694.

Target: CLuc-TaVIH2 (Triticum aestivum (wheat))
Assay: split reporter

fold increase of luminescence (RLU) over controls: 7 to 8 fold
Substance: NLuc-TaFLA7 (natural protein)
